# According to article PMC3765318, “An efficient protocol for the purification and labeling of entire yeast septin rods from E.coli for quantitative in vitro experimentation” (BMC Biotechnology, 2013):
# Experiments:
# [1] = molecular target: T1, SNAP tagged septin rod labeled with BG-biotin (S. cerevisiae, UniProt P32458 1-415; P32468 1-407; P32457 1-520; P25342 1-322, biotin, covalently attached with BG-Biotin to the SNAP tag); test: SPR; Biacore X100; biotinylated SNAP tagged septin rods captured (about 100 RU) on an anti-biotin antibody coated CM5 chip; Bni5 0-1600 nM as analyte in MSP buffer (10 mM MES, 150 mM NaCl, 0.05% Tween 20, pH 7.4); KD from the analyte response plotted against concentration; details: both partners purified
# T1 construct: Cdc11, S. cerevisiae septin; ORF amplified by PCR from genomic DNA; Cdc12, S. cerevisiae septin; Cdc3, S. cerevisiae septin; Cdc10, S. cerevisiae septin; calculated molecular weight 432.5 kDa; also called septin rods; biotinylated septin rods; source: E. coli BL21(DE3), four subunits co-expressed, purified (IMAC, Resource Q anion exchange), labeled with BG-Biotin; not shown: S tag, N-terminal, …
# [2] = molecular target: T1, SNAP tagged septin rod labeled with …; test: SPR; same dataset as a8; sensograms fitted with a two state reaction model (to compensate for background binding of Bni5 to the antibody-coated surface); contact 120 or 180 s, dissociation 600 s; details: both partners purified
# [3] = molecular target: the molecule itself; test: co-sedimentation + other: fluorescence microscopy; 2 uM SNAP tagged rods labeled with BG-TMR, dialyzed into low salt buffer (50 mM NaCl, 50-200 mM Tris-HCl pH 8.0), 16 h at 4 C, pelleted at 100,000 g, on poly-L-lysine slides
Binder,Kd [1] [µM],Kd [2] [µM],koff [2] [s⁻¹],kon [2] [M⁻¹ s⁻¹],binding result [3]
"Bni5 (natural protein, S. cerevisiae, UniProt P53890 1-448, looked up, Bni5, S. cerevisiae; BNI5 PCR amplified from genomic DNA, cloned in a pET15b derived expression plasmid; primers are in Additional file 1; also called purified Bni5 (analyte protein); 6his tagged Bni5; source: E. coli BL21(DE3), purified (IMAC, size exclusion chromatography)) MGLDQDKIKKRLSQIEIDINQMNQMIDENLQLVEPAEDEAVEDNVKDTGVVDAVKVAETALFSGNDGADSNPGDSAQVEEHKTAQVHIPTENEANKSTDDPSQLSVTQPFIAKEQITHTAIAIGDSYNSFVANSAGNEKAKDSCTENKEDGTVNIDQNRGEADVEIIENNDDEWEDEKSDVEEGRVDKGTEENSEIESFKSPMPQNNTLGGENKLDAELVLDKFSSANKDLDIQPQTIVVGGDNEYNHESSRLADQTPHDDNSENCPNRSGGSTPLDSQTKIFIPKKNSKEDGTNINHFNSDGDGQKKMANFETRRPTNPFRVISVSSNSNSRNGSRKSSLNKYDSPVSSPITSASELGSIAKLEKRHDYLSMKCIKLQKEIDYLNKMNAQGSLSMEDGKRLHRAVVKLQEYLDKKTKEKYEVGVLLSRHLRKQIDRGENGQFWIGTK",0.313,0.253,0.037,51000,
"SNAP tagged septin rod labeled with BG-TMR (complex, S. cerevisiae, tetramethylrhodamine (TMR), covalently attached with BG-TMR to the SNAP tag, Cdc11, S. cerevisiae septin; ORF amplified by PCR from genomic DNA; Cdc12, S. cerevisiae septin; Cdc3, S. cerevisiae septin; Cdc10, S. cerevisiae septin; also called SNAP tagged, TMR labeled septin filaments; TMR labeled septin filaments; source: E. coli BL21(DE3), four subunits co-expressed, purified (IMAC, Resource Q anion exchange), labeled with BG-TMR; copies: 2 + 2 + 2 + 2) chain 1: MSGIIDASSALRKRKHLKRGITFTVMIVGQSGSGRSTFINTLCGQQVVDTSTTILLPTDTSTEIDLQLREETVELEDDEGVKIQLNIIDTPGFGDSLDNSPSFEIISDYIRHQYDEILLEESRVRRNPRFKDGRVHCCLYLINPTGHGLKEIDVEFIRQLGSLVNIIPVISKSDSLTRDELKLNKKLIMEDIDRWNLPIYNFPFDEDEISDEDYETNMYLRTLLPFAIIGSNEVYEMGGDVGTIRGRKYPWGILDVEDSSISDFVILRNALLISHLHDLKNYTHEILYERYRTEALSGESVAAESIRPNLTKLNGSSSSSTTTRRNTNPFKQSNNINNDVLNPASDMHGQSTGENNETYMTREEQIRLEEERLKAFEERVQQELLLKRQELLQREKELREIEARLEKEAKIKQEE chain 2: MSAATATAAPVPPPVGISNLPNQRYKIVNEEGGTFTVMLCGESGLGKTTFINTLFQTVLKRADGQQHRQEPIRKTVEIDITRALLEEKHFELRVNVIDTPGFGDNVNNNKAWQPLVDFIDDQHDSYMRQEQQPYRTKKFDLRVHAVLYFIRPTGHGLKPIDIETMKRLSTRANLIPVIAKADTLTAQELQQFKSRIRQVIEAQEIRIFTPPLDADSKEDAKSGSNPDSAAVEHARQLIEAMPFAIVGSEKKFDNGQGTQVVARKYPWGLVEIENDSHCDFRKLRALLLRTYLLDLISTTQEMHYETYRRLRLEGHENTGEGNEDFTLPAIAPARKLSHNPRYKEEENALKKYFTDQVKAEEQRFRQWEQNIVNERIRLNGDLEEIQGKVKKLEEQVKSLQVKKSHLK chain 3: MSLKEEQVSIKQDPEQEERQHDQFNDVQIKQESQDHDGVDSQYTNGTQNDDSERFEAAESDVKVEPGLGMGITSSQSEKGQVLPDQPEIKFIRRQINGYVGFANLPKQWHRRSIKNGFSFNLLCVGPDGIGKTTLMKTLFNNDDIEANLVKDYEEELANDQEEEEGQGEGHENQSQEQRHKVKIKSYESVIEENGVKLNLNVIDTEGFGDFLNNDQKSWDPIIKEIDSRFDQYLDAENKINRHSINDKRIHACLYFIEPTGHYLKPLDLKFMQSVYEKCNLIPVIAKSDILTDEEILSFKKTIMNQLIQSNIELFKPPIYSNDDAENSHLSERLFSSLPYAVIGSNDIVENYSGNQVRGRSYPWGVIEVDNDNHSDFNLLKNLLIKQFMEELKERTSKILYENYRSSKLAKLGIKQDNSVFKEFDPISKQQEEKTLHEAKLAKLEIEMKTVFQQKVSEKEKKLQKSETELFARHKEMKEKLTKQLKALEDKKKQLELSINSASPNVNHSPVPTKKKGFLR chain 4: MDPLSSVQPASYVGFDTITNQIEHRLLKKGFQFNIMVVGQSGLGKSTLINTLFASHLIDSATGDDISALPVTKTTEMKISTHTLVEDRVRLNINVIDTPGFGDFIDNSKAWEPIVKYIKEQHSQYLRKELTAQRERFITDTRVHAILYFLQPNGKELSRLDVEALKRLTEIANVIPVIGKSDTLTLDERTEFRELIQNEFEKYNFKIYPYDSEELTDEELELNRSVRSIIPFAVVGSENEIEINGETFRGRKTRWSAINVEDINQCDFVYLREFLIRTHLQDLIETTSYIHYEGFRARQLIALKENANSRSSAHMSSNAIQR",,,,,binds
